Our source for the stoichiometry N values is PMC7679967.

The target of this experiment is human Hsp90β (HSP90AB1) (human) (UniProt P08238). The experiment is described as follows: SEC-MALS.

human Hsp90β (HSP90AB1), P08238 1-724 (natural protein; other documents disagree on this pair), sequence (P08238 whole entry): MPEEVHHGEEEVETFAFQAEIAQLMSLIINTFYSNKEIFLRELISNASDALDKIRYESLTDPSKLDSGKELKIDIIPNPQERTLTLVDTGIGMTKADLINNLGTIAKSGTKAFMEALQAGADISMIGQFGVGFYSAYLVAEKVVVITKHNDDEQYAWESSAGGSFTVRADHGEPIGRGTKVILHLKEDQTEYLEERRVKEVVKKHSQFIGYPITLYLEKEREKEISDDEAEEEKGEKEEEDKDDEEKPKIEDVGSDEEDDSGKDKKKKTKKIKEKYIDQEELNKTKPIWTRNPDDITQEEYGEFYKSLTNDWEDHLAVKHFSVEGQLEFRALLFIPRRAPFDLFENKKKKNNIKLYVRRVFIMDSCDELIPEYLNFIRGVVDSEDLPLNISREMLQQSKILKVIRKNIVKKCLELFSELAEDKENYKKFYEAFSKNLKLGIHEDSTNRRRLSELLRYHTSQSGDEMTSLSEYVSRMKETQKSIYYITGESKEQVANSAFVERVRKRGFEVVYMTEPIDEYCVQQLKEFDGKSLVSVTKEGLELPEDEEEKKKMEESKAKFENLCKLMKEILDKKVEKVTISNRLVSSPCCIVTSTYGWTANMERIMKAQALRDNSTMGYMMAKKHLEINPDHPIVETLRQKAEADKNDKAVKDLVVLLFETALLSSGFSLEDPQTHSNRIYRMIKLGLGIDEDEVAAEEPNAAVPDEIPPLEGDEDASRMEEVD

“human Hsp90β (HSP90AB1), P08238 1-724 (natural protein; other documents disagree on this pair)” yielded a stoichiometry N of 2.
